Data reported in PMC7367873, “Dissecting the sequence determinants for dephosphorylation by the catalytic subunits of phosphatases PP1 and PP2A” (Nature Communications, 2020).

Columns and labels:
[1] = tested on: GFP-14-3-3β and its binding proteins; assay: GFP-14-3-3β co-IP with LC-MS/MS label-free quantification, untreated versus PP1c-treated; design: species or system human; details: pairwise comparison PP1 vs untreated, student's t-test; 3 replicates each; LC-MS/MS label-free quantification
GFP-14-3-3β = GFP-14-3-3β co-IP with LC-MS/MS, untreated GFP-14-3-3β versus GFP control (14-3-3 interactome); assay type: binding, human; details: pairwise comparison untreated GFP-14-3-3β vs GFP, student's t-test; 3 replicates each; LC-MS/MS label-free quantification

Molecule	Difference (log2), PP1 vs untreated [1]	Difference (log2), untreated vs GFP (GFP-14-3-3β)
SHCBP1 (protein, UniProt Q8NEM2 2-672, looked up) SHC SH2 domain-binding …: ADGSLTGGGLEAAAMAPERMGWAVEQELASLEKGLFQDEDSCSDCSYRDKPGSSLQSFMPEGKTFFPEIFQTNQLLFYERFRAYQDYILADCKASEVQEFTAEFLEKVLEPSGWRAVWHTNVFKVLVEITDVDFAALKAVVRLAEPYLCDSQVSTFTMECMKELLDLKEHRLPLQELWVVFDDSGVFDQTALAIEHVRFFYQNIWRSWDEEEEDEYDYFVRCVEPRLRLHYDILEDRVPSGLIVDYHNLLSQCEESYRKFLNLRSSLSNCNSDSEQENISMVEGLKLYSEMEQLKQKLKLIENPLLRYVFGYQKNSNIQAKGVRSSGQKITHVVSSTMMAGLLRSLLTDRLCQEPGEEEREIQFHSDPLSAINACFEGDTVIVCPGHYVVHGTFSIADSIELEGYGLPDDIVIEKRGKGDTFVDCTGADIKISGIKFVQHDAVEGILIVHRGKTTLENCVLQCETTGVTVRTSAEFLMKNSDLYGAKGAGIEIYPGSQCTLSDNGIHHCKEGILIKDFLDEHYDIPKISMVNNIIHNNEGYGVVLVKPTIFSDLQENAEDGTEENKALKIQTSGEPDVAERVDLEELIECATGKMELCARTDPSEQVEGNCEIVNELIAASTQKGQIKKKRLSELGITQADDNLMSQEMFVGIVGNQFKWNGKGSFGTFLF	-3.298 log2	4.099 log2
NCKAP1 (protein, UniProt Q9Y2A7 2-1128, looked up) Nck-associated protein 1: SRSVLQPSQQKLAEKLTILNDRGVGMLTRLYNIKKACGDPKAKPSYLIDKNLESAVKFIVRKFPAVETRNNNQQLAQLQKEKSEILKNLALYYFTFVDVMEFKDHVCELLNTIDVCQVFFDITVNFDLTKNYLDLIITYTTLMILLSRIEERKAIIGLYNYAHEMTHGASDREYPRLGQMIVDYENPLKKMMEEFVPHSKSLSDALISLQMVYPRRNLSADQWRNAQLLSLISAPSTMLNPAQSDTMPCEYLSLDAMEKWIIFGFILCHGILNTDATALNLWKLALQSSSCLSLFRDEVFHIHKAAEDLFVNIRGYNKRINDIRECKEAAVSHAGSMHRERRKFLRSALKELATVLSDQPGLLGPKALFVFMALSFARDEIIWLLRHADNMPKKSADDFIDKHIAELIFYMEELRAHVRKYGPVMQRYYVQYLSGFDAVVLNELVQNLSVCPEDESIIMSSFVNTMTSLSVKQVEDGEVFDFRGMRLDWFRLQAYTSVSKASLGLADHRELGKMMNTIIFHTKMVDSLVEMLVETSDLSIFCFYSRAFEKMFQQCLELPSQSRYSIAFPLLCTHFMSCTHELCPEERHHIGDRSLSLCNMFLDEMAKQARNLITDICTEQCTLSDQLLPKHCAKTISQAVNKKSKKQTGKKGEPEREKPGVESMRKNRLVVTNLDKLHTALSELCFSINYVPNMVVWEHTFTPREYLTSHLEIRFTKSIVGMTMYNQATQEIAKPSELLTSVRAYMTVLQSIENYVQIDITRVFNNVLLQQTQHLDSHGEPTITSLYTNWYLETLLRQVSNGHIAYFPAMKAFVNLPTENELTFNAEEYSDISEMRSLSELLGPYGMKFLSESLMWHISSQVAELKKLVVENVDVLTQMRTSFDKPDQMAALFKRLSSVDSVLKRMTIIGVILSFRSLAQEALRDVLSYHIPFLVSSIEDFKDHIPRETDMKVAMNVYELSSAAGLPCEIDPALVVALSSQKSENISPEEEYKIACLLMVFVAVSLPTLASNVMSQYSPAIEGHCNNIHCLAKAINQIAAALFTIHKGSIEDRLKEFLALASSSLLKIGQETDKTTTRNRESVYLLLDMIVQESPFLTMDLLESCFPYVLLRNAYHAVYKQSVTSSA	-3.667 log2	2.589 log2
CCDC6 (protein, UniProt Q16204 2-474, looked up) Coiled-coil domain-containing …: ADSASESDTDGAGGNSSSSAAMQSSCSSTSGGGGGGGGGGGGGKSGGIVISPFRLEELTNRLASLQQENKVLKIELETYKLKCKALQEENRDLRKASVTIQARAEQEEEFISNTLFKKIQALQKEKETLAVNYEKEEEFLTNELSRKLMQLQHEKAELEQHLEQEQEFQVNKLMKKIKKLENDTISKQLTLEQLRREKIDLENTLEQEQEALVNRLWKRMDKLEAEKRILQEKLDQPVSAPPSPRDISMEIDSPENMMRHIRFLKNEVERLKKQLRAAQLQHSEKMAQYLEEERHMREENLRLQRKLQREMERREALCRQLSESESSLEMDDERYFNEMSAQGLRPRTVSSPIPYTPSPSSSRPISPGLSYASHTVGFTPPTSLTRAGMSYYNSPGLHVQHMGTSHGITRPSPRRSNSPDKFKRPTPPPSPNTQTPVQPPPPPPPPPMQPTVPSAATSQPTPSQHSAHPSSQP	-3.654 log2	4.515 log2

Continued, in another order:

Difference (log2), PP1 vs untreated [1]	Molecule	Difference (log2), untreated vs GFP (GFP-14-3-3β)
-3.585 log2	RAPGEF2 (protein, UniProt Q9Y4G8 1-1499, looked up) Rap guanine nucleotide …: MKPLAIPANHGVMGQQEKHSLPADFTKLHLTDSLHPQVTHVSSSHSGCSITSDSGSSSLSDIYQATESEAGDMDLSGLPETAVDSEDDDDEEDIERASDPLMSRDIVRDCLEKDPIDRTDDDIEQLLEFMHQLPAFANMTMSVRRELCAVMVFAVVERAGTIVLNDGEELDSWSVILNGSVEVTYPDGKAEILCMGNSFGVSPTMDKEYMKGVMRTKVDDCQFVCIAQQDYCRILNQVEKNMQKVEEEGEIVMVKEHRELDRTGTRKGHIVIKGTSERLTMHLVEEHSVVDPTFIEDFLLTYRTFLSSPMEVGKKLLEWFNDPSLRDKVTRVVLLWVNNHFNDFEGDPAMTRFLEEFENNLEREKMGGHLRLLNIACAAKAKRRLMTLTKPSREAPLPFILLGGSEKGFGIFVDSVDSGSKATEAGLKRGDQILEVNGQNFENIQLSKAMEILRNNTHLSITVKTNLFVFKELLTRLSEEKRNGAPHLPKIGDIKKASRYSIPDLAVDVEQVIGLEKVNKKSKANTVGGRNKLKKILDKTRISILPQKPYNDIGIGQSQDDSIVGLRQTKHIPTALPVSGTLSSSNPDLLQSHHRILDFSATPDLPDQVLRVFKADQQSRYIMISKDTTAKEVVIQAIREFAVTATPDQYSLCEVSVTPEGVIKQRRLPDQLSKLADRIQLSGRYYLKNNMETETLCSDEDAQELLRESQISLLQLSTVEVATQLSMRNFELFRNIEPTEYIDDLFKLRSKTSCANLKRFEEVINQETFWVASEILRETNQLKRMKIIKHFIKIALHCRECKNFNSMFAIISGLNLAPVARLRTTWEKLPNKYEKLFQDLQDLFDPSRNMAKYRNVLNSQNLQPPIIPLFPVIKKDLTFLHEGNDSKVDGLVNFEKLRMIAKEIRHVGRMASVNMDPALMFRTRKKKWRSLGSLSQGSTNATVLDVAQTGGHKKRVRRSSFLNAKKLYEDAQMARKVKQYLSNLELEMDEESLQTLSLQCEPATNTLPKNPGDKKPVKSETSPVAPRAGSQQKAQSLPQPQQQPPPAHKINQGLQVPAVSLYPSRKKVPVKDLPPFGINSPQALKKILSLSEEGSLERHKKQAEDTISNASSQLSSPPTSPQSSPRKGYTLAPSGTVDNFSDSGHSEISSRSSIVSNSSFDSVPVSLHDERRQRHSVSIVETNLGMGRMERRTMIEPDQYSLGSYAPMSEGRGLYATATVISSPSTEELSQDQGDRASLDAADSGRGSWTSCSSGSHDNIQTIQHQRSWETLPFGHTHFDYSGDPAGLWASSSHMDQIMFSDHSTKYNRQNQSRESLEQAQSRASWASSTGYWGEDSEGDTGTIKRRGGKDVSIEAESSSLTSVTTEETKPVPMPAHIAVASSTTKGLIARKEGRYREPPPTPPGYIGIPITDFPEGHSHPARKPPDYNVALQRSRMVARSSDTAGPSSVQQPHGHPTSSRPVNKPQWHKPNESDPRLAPYQSQGFSTEEDEDEQVSAV	2.788 log2
-3.391 log2	ZFP36L2 (protein, UniProt P47974 1-494, looked up) mRNA decay activator protein …: MSTTLLSAFYDVDFLCKTEKSLANLNLNNMLDKKAVGTPVAAAPSSGFAPGFLRRHSASNLHALAHPAPSPGSCSPKFPGAANGSSCGSAAAGGPTSYGTLKEPSGGGGTALLNKENKFRDRSFSENGDRSQHLLHLQQQQKGGGGSQINSTRYKTELCRPFEESGTCKYGEKCQFAHGFHELRSLTRHPKYKTELCRTFHTIGFCPYGPRCHFIHNADERRPAPSGGASGDLRAFGTRDALHLGFPREPRPKLHHSLSFSGFPSGHHQPPGGLESPLLLDSPTSRTPPPPSCSSASSCSSSASSCSSASAASTPSGAPTCCASAAAAAAAALLYGTGGAEDLLAPGAPCAACSSASCANNAFAFGPELSSLITPLAIQTHNFAAVAAAAYYRSQQQQQQQGLAPPAQPPAPPSATLPAGAAAPPSPPFSFQLPRRLSDSPVFDAPPSPPDSLSDRDSYLSGSLSSGSLSGSESPSLDPGRRLPIFSRLSISDD	3.556 log2
-3.665 log2	IRS2 (protein, UniProt Q9Y4H2 1-1338, looked up) Insulin receptor substrate 2: MASPPRHGPPGPASGDGPNLNNNNNNNNHSVRKCGYLRKQKHGHKRFFVLRGPGAGGDEATAGGGSAPQPPRLEYYESEKKWRSKAGAPKRVIALDCCLNINKRADAKHKYLIALYTKDEYFAVAAENEQEQEGWYRALTDLVSEGRAAAGDAPPAAAPAASCSASLPGALGGSAGAAGAEDSYGLVAPATAAYREVWQVNLKPKGLGQSKNLTGVYRLCLSARTIGFVKLNCEQPSVTLQLMNIRRCGHSDSFFFIEVGRSAVTGPGELWMQADDSVVAQNIHETILEAMKALKELFEFRPRSKSQSSGSSATHPISVPGARRHHHLVNLPPSQTGLVRRSRTDSLAATPPAAKCSSCRVRTASEGDGGAAAGAAAAGARPVSVAGSPLSPGPVRAPLSRSHTLSGGCGGRGSKVALLPAGGALQHSRSMSMPVAHSPPAATSPGSLSSSSGHGSGSYPPPPGPHPPLPHPLHHGPGQRPSSGSASASGSPSDPGFMSLDEYGSSPGDLRAFCSHRSNTPESIAETPPARDGGGGGEFYGYMTMDRPLSHCGRSYRRVSGDAAQDLDRGLRKRTYSLTTPARQRPVPQPSSASLDEYTLMRATFSGSAGRLCPSCPASSPKVAYHPYPEDYGDIEIGSHRSSSSNLGADDGYMPMTPGAALAGSGSGSCRSDDYMPMSPASVSAPKQILQPRAAAAAAAAVPSAGPAGPAPTSAAGRTFPASGGGYKASSPAESSPEDSGYMRMWCGSKLSMEHADGKLLPNGDYLNVSPSDAVTTGTPPDFFSAALHPGGEPLRGVPGCCYSSLPRSYKAPYTCGGDSDQYVLMSSPVGRILEEERLEPQATPGPSQAASAFGAGPTQPPHPVVPSPVRPSGGRPEGFLGQRGRAVRPTRLSLEGLPSLPSMHEYPLPPEPKSPGEYINIDFGEPGARLSPPAPPLLASAASSSSLLSASSPASSLGSGTPGTSSDSRQRSPLSDYMNLDFSSPKSPKPGAPSGHPVGSLDGLLSPEASSPYPPLPPRPSASPSSSLQPPPPPPAPGELYRLPPASAVATAQGPGAASSLSSDTGDNGDYTEMAFGVAATPPQPIAAPPKPEAARVASPTSGVKRLSLMEQVSGVEAFLQASQPPDPHRGAKVIRADPQGGRRRHSSETFSSTTTVTPVSPSFAHNPKRHNSASVENVSLRKSSEGGVGVGPGGGDEPPTSPRQLQPAPPLAPQGRPWTPGQPGGLVGCPGSGGSPMRRETSAGFQNGLNYIAIDVREEPGLPPQPQPPPPPLPQPGDKSSWGRTRSLGGLISAVGVGSTGGGCGGPGPGALPPANTYASIDFLSHHLKEATIVKE	7.914 log2
